The target of assay [1] is T1, recombinant human CD155-Fc fusion protein, WT (human, UniProt P15151 21-343).
T1 sequence (looked up): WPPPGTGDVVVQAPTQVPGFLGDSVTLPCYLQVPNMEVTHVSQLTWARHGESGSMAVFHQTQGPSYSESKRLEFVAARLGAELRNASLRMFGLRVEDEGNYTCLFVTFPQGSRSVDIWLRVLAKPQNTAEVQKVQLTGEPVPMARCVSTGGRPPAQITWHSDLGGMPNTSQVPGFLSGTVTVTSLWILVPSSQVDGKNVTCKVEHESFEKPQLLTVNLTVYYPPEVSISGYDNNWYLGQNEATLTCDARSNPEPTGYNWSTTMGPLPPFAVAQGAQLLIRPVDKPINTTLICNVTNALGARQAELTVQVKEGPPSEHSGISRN
The experiment in a line: BLI. In general terms: In BLI a coated tip is dipped into the sample, and binding shifts an interference pattern.

In assay [2] the target is T2, recombinant human CD155-Fc fusion protein, mutant (Ala67Thr) (human, UniProt P15151 21-343, Ala67Thr).
T2 sequence (looked up): T1 sequence (looked up) with A47T
The experiment in a line: BLI.

Positions count from the first letter of the chain named.

This is an account of results in publication PMC9633295 (Cancer Science, 2022).

B1: His-tagged recombinant human DNAM-1 (receptor, UniProt Q15762 19-254, looked up)
chain: EEVLWHTSVPFAENMSLECVYPSMGILTQVEWFKIGTQQDSIAIFSPTHGMVIRKPYAERVYFLNSTMASNNMTLFFRNASEDDVGYYSCSLYTYPQGTWQKVIQVVQSDSFEAAVPSNSHIVSEPGKNVTLTCQPQMTWPVQAVRWEKIQPRQIDLLTYCNLVHGRNFTSKFPRQIVSNCSHGRWSVIVIPDVTVSDSGLYRCYLQASAGENETFVMRLTVAEGKTDNQYTLFVA
B1: the binding result in assay [1] and in assay [2] was “binds” in each case.
